Assay results from patent publication US20090004190A1, “Rage Fusion Proteins And Methods Of Use” (priority 2006, published 2009).
Where “and” joins values, the source holds several entries; their conditions need not be identical. Equal entries are not always repeated.

Tested on: allogeneic rejection of transplanted islet cells
Experiment: Allogeneic islet transplantation (BALB/c islets in streptozotocin-diabetic B6 mice)
Format: in vivo, mouse
Conditions: for day of graft loss, each animal: blood glucose exceeded 250 mg/dl; for day of graft loss, Mean: n 8
Procedure: C57BL/6J (6-8 week old) (B6) mice were made diabetic by a single intravenous injection of streptozotocin (STZ) (Sigma Chemical Co., St. Louis, Mo.) at 200 mg/kg. BALB/cJ (6-8 week old) (BALB) mice served as donors for islet transplantation, thus providing an allo-mismatch for islet transplants.
Mice (BALB/c) were anesthetized with ketamine HCl/xylazine HCl solution (Sigma, St. Louis Mo.). After intraductal injection of 3 ml of cold Hank's balanced salt solution (HBSS, Gibco, Grand Island N.Y.) containing 1.5 mg/ml of collagenase P (Roche Diagnostics, Branchburg, N.J.), pancreata were surgically procured and digested at 37° C. for 20 mins. Islets were washed with HBSS and purified by discontinuous gradient centrifugation using Polysucrose 400 (Cellgro, Herndon Va.) having four different densities (26%, 23%, 20%, and 11%). The tissue fragments at the interface of the 20% and 23% layers were collected, washed and resuspended in HBSS. Individual islets, free of attached acinar, vascular and ductal tissues were handpicked under an inverted microscope, yielding highly purified islets for transplantation.
Streptozotocin-induced diabetic C57BL/6 (B6) mice received islet grafts within 2 days of the diagnosis of diabetes. BALB/cJ (6-8 week old) (BALB) mice served as donors for allogeneic islet transplantation. For transplantation, 500-600 freshly isolated islets (i.e., approximately 550 islet equivalents) from donor mice were picked up with an infusion set and transplanted into the subcapular space of the right kidney of a recipient.
Test compounds were administered as soon as the islets were transplanted; administration continued for about 60 days, depending upon how the control animal was faring.
Islet graft function was monitored by serial blood glucose measurements daily for the first 2 weeks after islet transplantation, followed by every other day thereafter. Reversal of diabetes was defined as blood a glucose level of less than 200 mg/dl on two consecutive measurements. Graft loss was determined when blood glucose exceeded 250 mg/dl on two consecutive measurements.

[1] = 300 ug + 30 ug qod ip (Group 3)
[2] = 300 ug LD + 100 ug qod ip (Group 1)

B1: TTP-4000: four domain RAGE fusion protein: human RAGE V and C1 domains with interdomain linkers (to residue 251) fused to human IgG1 CH2 and CH3; SEQ ID NO: 34/56 (protein, listed as Homo sapiens)
chain: QNITARIGEPLVLKCKGAPKKPPQRLEWKLNTGRTEAWKVLSPQGGGPWDSVARVLPNGSLFLPAVGIQDEGIFRCQAMNRNGKETKSNYRVRVYQIPGKPEIVDSASELTAGVPNKVGTCVSEGSYPAGTLSWHLDGKPLVPNEKGVSVKEQTRRHPETGLFTLQSELMVTPARGGDPRPTFSCSFSPGLPRHRALRTAPIQPRVWEPVPLEEVQLVVEPEGGAVAPPSVFLFPPKPKDTLMISRTPEVTCVVVDVSHEDPEVKFNWYVDGVEVHNAKTKPREEQYNSTYRVVSVLTVLHQDWLNGKEYKCKVSNKALPAPIEKTISKAKGQPREPQVYTLPPSRDELTKNQVSLTCLVKGFYPSDIAVEWESNGQPENNYKTTPPVLDSDGSFFLYSKLTVDKSRWQQGNVFSCSVMHEALHNHYTQKSLSLSPGK
day of graft loss, each animal [1]: 13 day and 14 day and 12 day (2×) and 11 day (2×) and 8 day (2×) | day of graft loss, Mean [1]: 11.125 days | day of graft loss, each animal [2]: 14 day (2×) and 16 day (2×) and 13 day (2×) and 12 day and 15 day | day of graft loss, Mean [2]: 14.125 days
